These results are taken from publication doi:10.1101/2024.12.30.630826.

For the series, the target named is IGFBP3 (insulin-like growth factor-binding protein 3) (UniProt P17936 28-291). The series is described as follows: SPR. A general note: SPR reads the build-up and loss of mass on a sensor chip optically.

Residue numbers refer to the chain shown, from its start.

Sequence of IGFBP3 (insulin-like growth factor-binding protein 3) (P17936 28-291): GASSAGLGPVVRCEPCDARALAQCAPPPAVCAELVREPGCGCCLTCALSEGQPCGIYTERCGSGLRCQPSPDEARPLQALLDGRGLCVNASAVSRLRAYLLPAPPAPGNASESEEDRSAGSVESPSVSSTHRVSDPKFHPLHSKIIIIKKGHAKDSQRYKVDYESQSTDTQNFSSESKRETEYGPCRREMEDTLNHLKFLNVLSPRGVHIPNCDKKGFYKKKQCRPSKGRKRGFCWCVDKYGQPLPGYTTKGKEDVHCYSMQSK

B1: RGen-aptamer-9 (structured_RNA)
RNA: UCCAGCACUCCACGCAUAACGAAGGGGGUUUGUUUGUUGGGGGGGGGGGAGGGGGAGUUAUGCGUGCUACCGUGAA
On to B1, for which binding was put at a Kd of 6.06 nM.

B2: SELEX-derived wild-type aptamer (structured_RNA)
RNA: B1 RNA with A22G, A23C, G26U, U29G, U31G, U33G, G40U, G44A
For B2, binding was characterised by a dissociation constant (Kd) of 11.6 nM.
